Measured values published in US20100227824A1 (SYMTHERA CANADA, published 2010).

T1: IL-8 (CXCL8) (UniProt P10145 28-99, limits assumed)
T1 construct: also called IL-8(72aa); IL-8(77aa)
T1 sequence (looked up): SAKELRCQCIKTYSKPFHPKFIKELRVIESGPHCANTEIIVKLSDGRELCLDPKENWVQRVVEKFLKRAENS

T2: Mig (CXCL9) (UniProt Q07325 23-125)
T2 construct: Bought chemokine
T2 sequence (looked up): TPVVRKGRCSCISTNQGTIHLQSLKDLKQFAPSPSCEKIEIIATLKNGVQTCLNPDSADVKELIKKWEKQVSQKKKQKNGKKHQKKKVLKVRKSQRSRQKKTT

T3: I-TAC (CXCL11) (UniProt O14625 22-94)
T3 construct: Bought chemokine; also called I-TACK
T3 sequence (looked up): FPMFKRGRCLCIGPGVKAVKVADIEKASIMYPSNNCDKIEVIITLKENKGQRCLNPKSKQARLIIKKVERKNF

T4: I-309 (CCL1) (UniProt P22362 23-96, limits assumed)
T4 construct: Bought chemokine
T4 sequence (looked up): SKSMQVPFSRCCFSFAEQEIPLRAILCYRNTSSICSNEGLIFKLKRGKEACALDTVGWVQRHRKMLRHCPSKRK

T5: MCP-2 (CCL8) (UniProt P80075 24-99)
T5 construct: Bought chemokine
T5 sequence (looked up): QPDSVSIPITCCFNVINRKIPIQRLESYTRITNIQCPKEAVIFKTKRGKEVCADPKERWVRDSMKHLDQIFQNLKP

T6: RANTES (CCL5) (UniProt P13501 24-91)
T6 construct: Bought chemokine
T6 sequence (looked up): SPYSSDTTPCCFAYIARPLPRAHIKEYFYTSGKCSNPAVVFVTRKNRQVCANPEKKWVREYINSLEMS

T7: Eotaxin 2 (CCL24) (UniProt O00175 27-104, limits assumed)
T7 construct: Bought chemokine
T7 sequence (looked up): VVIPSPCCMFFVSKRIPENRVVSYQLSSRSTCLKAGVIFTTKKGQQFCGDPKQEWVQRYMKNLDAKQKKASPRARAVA

T8: Eotaxin 3 (CCL26) (UniProt Q9Y258 24-94)
T8 construct: Bought chemokine
T8 sequence (looked up): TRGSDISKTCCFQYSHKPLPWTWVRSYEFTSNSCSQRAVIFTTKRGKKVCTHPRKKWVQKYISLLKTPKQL

T9: BCA-1 (CXCL13) (UniProt O43927 23-109)
T9 construct: Bought chemokine
T9 sequence (looked up): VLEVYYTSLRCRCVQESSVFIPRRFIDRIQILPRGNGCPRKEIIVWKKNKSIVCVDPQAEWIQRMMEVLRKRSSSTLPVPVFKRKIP

T10: Exodus-2 (CCL21) (UniProt O00585 24-134)
T10 construct: Bought chemokine
T10 sequence (looked up): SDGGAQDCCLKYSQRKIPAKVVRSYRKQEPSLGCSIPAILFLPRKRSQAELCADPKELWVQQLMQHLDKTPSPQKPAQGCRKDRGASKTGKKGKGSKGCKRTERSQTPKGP

T11: TECK (CCL25) (UniProt O15444 24-150)
T11 construct: Bought chemokine
T11 sequence (looked up): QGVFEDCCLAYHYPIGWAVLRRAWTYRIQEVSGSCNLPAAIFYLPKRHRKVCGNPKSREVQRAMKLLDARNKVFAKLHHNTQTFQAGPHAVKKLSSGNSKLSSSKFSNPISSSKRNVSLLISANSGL

T12: Lymphotactin (XCL-1) (UniProt P47992 23-114, limits assumed)
T12 construct: Bought chemokine
T12 sequence (looked up): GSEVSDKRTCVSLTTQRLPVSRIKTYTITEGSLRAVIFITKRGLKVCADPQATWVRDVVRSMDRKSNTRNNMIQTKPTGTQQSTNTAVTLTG

T13: MDC(69aa) (CCL22) (UniProt O00626 25-93)
T13 construct: Bought chemokine
T13 sequence (looked up): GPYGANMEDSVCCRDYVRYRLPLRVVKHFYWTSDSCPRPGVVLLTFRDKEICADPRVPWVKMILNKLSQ

T14: CTAC (CCL27) (UniProt Q9Y4X3 25-112)
T14 construct: Bought chemokine
T14 sequence (looked up): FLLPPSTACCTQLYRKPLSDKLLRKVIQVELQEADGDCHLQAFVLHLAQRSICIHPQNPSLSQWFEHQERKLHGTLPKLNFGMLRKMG

T15: IP-10 (CXCL10) (UniProt P02778 22-98)
T15 construct: Bought chemokine
T15 sequence (looked up): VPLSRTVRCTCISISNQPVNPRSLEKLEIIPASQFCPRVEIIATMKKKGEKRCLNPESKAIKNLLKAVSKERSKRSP


Experiments:
Assay in all cases: micro-array, phage-presented peptide on printed CK
IL-8 (CXCL8) = target: T1, IL-8 (CXCL8)
Experimental: (§1) (1) Printing: Chemokine (CK) solution (in water) was serially diluted with Print Reagent (GenTel BioSurfaces USA) to final concentrations of 50 μg and 25 μg/ml. BSA/BSA-Biotin control solutions (in water) were diluted with Print Reagent to 100 μg/ml. Amplified stock of M13 phage control (M13KEgIII Cloning Vector, New England Biolabs, Cat.No.E8101S) was stored in Tris Buffered Saline (TBS; pH7.5, 4° C.) and diluted with Print Reagent to the working titre (10^8 pfu/μl). An automated spotting robot (16 pin print tool, 0.4mm head; BioRobotics, UK) was used to print the CK/BSA control/M13 control, 5 repeats per sample (CK 25 μg/ml and 50 μg/ml; BSA 100 μg/ml; M13 20 μl), on PATH Protein Microarray Slides (GenTel, Prod.No.2-1005/-1025) at […], and 50-70% relative humidity. Printed micro-array slides were stored at Room Temperature (RT) or 4° C. for at least 24 h before use.
(§2) (2) Blocking: Block Buffer (500 μl/partition; PATHblock, GenTel, Prod.No.2-1014) was applied to the slide for 1 hour at room temp (RT). After removal of Block Buffer, the slide was air dried for 25 minutes;
(§3) (11) Analysis: Quantitative analysis of micro-array was performed by the SpotReader program of Niles Scientific (USA) and presented as Relative Fluorescence (RF) as a function of CK concentration. Micro-array readout (Cy3 fluorescence) was quantified to determine the relative binding affinities of a CBP for the CKs and by inference, the specificity of the CBP for binding to a CK.

Mig (CXCL9) = target: T2, Mig (CXCL9)
Experimental: as §1, §2, §3

I-TAC (CXCL11) = target: T3, I-TAC (CXCL11)
Experimental: as §1, §2, §3

I-309 (CCL1) = target: T4, I-309 (CCL1)
Experimental: as §1, §2, §3

MCP-1 (CCL2) = target: T16, MCP-1 (CCL2) (UniProt P13500 24-99)
T16 construct: Bought chemokine
T16 sequence (P13500 24-99 limits assumed): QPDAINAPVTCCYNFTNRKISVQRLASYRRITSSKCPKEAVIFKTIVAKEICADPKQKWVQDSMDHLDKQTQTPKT
Experimental: as §1, §2, §3

MCP-2 (CCL8) = target: T5, MCP-2 (CCL8)
Experimental: as §1, §2, §3

MCP-4 (CCL13) = target: T17, MCP-4 (CCL13) (UniProt Q99616 24-98)
T17 construct: Bought chemokine
T17 sequence (Q99616 24-98 limits assumed): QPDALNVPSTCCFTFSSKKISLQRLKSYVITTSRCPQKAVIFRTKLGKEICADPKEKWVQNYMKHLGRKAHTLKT
Experimental: as §1, §2, §3

RANTES (CCL5) = target: T6, RANTES (CCL5)
Experimental: as §1, §2, §3

Eotaxin (CCL11) = target: T18, Eotaxin (CCL11) (UniProt P51671 24-97)
T18 construct: Bought chemokine
T18 sequence (P51671 24-97 limits assumed): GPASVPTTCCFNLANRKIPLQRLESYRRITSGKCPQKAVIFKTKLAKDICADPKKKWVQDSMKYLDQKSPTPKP
Experimental: as §1, §2, §3

Eotaxin 2 (CCL24) = target: T7, Eotaxin 2 (CCL24)
Experimental: as §1, §2, §3

Eotaxin 3 (CCL26) = target: T8, Eotaxin 3 (CCL26)
Experimental: as §1, §2, §3

SDF-1α (CXCL12) = target: T19, SDF-1α (CXCL12) (UniProt P48061-2 22-89)
T19 construct: Alpha isoform of CXCL12; also called SDFα
T19 sequence (P48061 22-89 limits assumed): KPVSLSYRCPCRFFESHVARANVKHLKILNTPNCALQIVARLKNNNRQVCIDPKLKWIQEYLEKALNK
Experimental: as §1, §2, §3

SDF-1β (CXCL12) = target: T20, SDF-1β (CXCL12) (UniProt P48061 22-93)
T20 construct: Beta isoform of CXCL12; also called SDFβ
T20 sequence (P48061 22-93 limits assumed): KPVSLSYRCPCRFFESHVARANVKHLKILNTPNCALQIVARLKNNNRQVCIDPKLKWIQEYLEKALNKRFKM
Experimental: as §1, §2, §3

BCA-1 (CXCL13) = target: T9, BCA-1 (CXCL13)
Experimental: as §1, §2, §3

Exodus-2 (CCL21) = target: T10, Exodus-2 (CCL21)
Experimental: as §1, §2, §3

TECK (CCL25) = target: T11, TECK (CCL25)
Experimental: as §1, §2, §3

Lymphotactin (XCL-1) = target: T12, Lymphotactin (XCL-1)
Experimental: as §1, §2, §3

MDC(69aa) (CCL22) = target: T13, MDC(69aa) (CCL22)
Experimental: as §1, §2, §3

CTAC (CCL27) = target: T14, CTAC (CCL27)
Experimental: as §1, §2, §3

IP-10 (CXCL10) = target: T15, IP-10 (CXCL10)
Experimental: as §1, §2, §3

Binder | Relative Fluorescence Units (RFU) (IL-8 (CXCL8)) | Relative Fluorescence Units (RFU) (Mig (CXCL9)) | Relative Fluorescence Units (RFU) (I-TAC (CXCL11)) | Relative Fluorescence Units (RFU) (I-309 (CCL1)) | Relative Fluorescence Units (RFU) (MCP-1 (CCL2)) | Relative Fluorescence Units (RFU) (MCP-2 (CCL8)) | Relative Fluorescence Units (RFU) (MCP-4 (CCL13)) | Relative Fluorescence Units (RFU) (RANTES (CCL5)) | Relative Fluorescence Units (RFU) (Eotaxin (CCL11)) | Relative Fluorescence Units (RFU) (Eotaxin 2 (CCL24)) | Relative Fluorescence Units (RFU) (Eotaxin 3 (CCL26)) | binding result (SDF-1α (CXCL12)) | binding result (SDF-1β (CXCL12)) | binding result (BCA-1 (CXCL13)) | binding result (Exodus-2 (CCL21)) | binding result (TECK (CCL25)) | binding result (Lymphotactin (XCL-1)) | binding result (MDC(69aa) (CCL22)) | binding result (CTAC (CCL27)) | Relative Fluorescence Units (RFU) (IP-10 (CXCL10))
DYDYG [Phage-Presented Peptide 31 (Ph-p31)] | > 15000 | > 15000 | > 15000 | > 15000 | > 15000 | > 15000 | > 15000 | > 15000 | > 15000 | > 15000 | > 15000 | binds | binds | binds | binds | binds | binds |  |  | 
DYDYGAPC [Phage-Presented Peptide 30 (Ph-p30)] | > 15000 | > 15000 | > 15000 | > 15000 | > 15000 | > 15000 | > 15000 | > 15000 | > 15000 | > 15000 | > 15000 | binds | binds | binds | binds | binds | binds | binds | binds | 
WVFGVHFCK [Phage-Presented Peptide 8.77 (Ph-p8.77)] | > 15000 | > 15000 | > 15000 | > 15000 |  | > 15000 | > 15000 |  |  |  | > 15000 |  | binds | binds |  | binds |  |  |  | 
NAMCK [Phage-Presented Peptide 8.11 (Ph-p8.11)] |  |  | > 10000 |  |  |  |  |  |  |  | > 10000 | binds | binds | binds | binds | binds |  |  | binds | > 10000
